Patent US20160333101A1 (GENOR BIOPHARMA, published 2016)

T1: recombinant human RANKL (human, UniProt O14788 136-317)
T1 sequence: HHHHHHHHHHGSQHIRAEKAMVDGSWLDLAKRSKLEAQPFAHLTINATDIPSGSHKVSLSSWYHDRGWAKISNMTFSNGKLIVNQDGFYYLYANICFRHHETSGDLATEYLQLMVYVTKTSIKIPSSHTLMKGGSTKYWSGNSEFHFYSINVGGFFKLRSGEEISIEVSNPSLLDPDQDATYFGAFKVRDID


Molecular target: T1, recombinant human RANKL
Experiment: cell-based or functional assay

Binder	EC50 value (ng/ml), inhibiting the cellular differentiation of RAW264.7 induced by human RANKL
114-5.9.4 (antibody, V domains shown) VH: EVQLQQSGAELVKPGASVKLSCTASGFNLKGTYIHWVKQRPGQGLEWIGRIDPANANTKYDPKFQGKATIRTDTSSNTAYLQLSSLTSEDTAVYFCSSPSGHYDVWFAYWGQGTLVTVSP VL: DIQMTQPTSSLSASLGDTVTISCSASQDISNYLNWYQQKPDGTLKLLIYYTSSLHSGVPSRFSGSGSGTDYSLTISNLEPEDIATYYCQQFSKLPLTFGAGTKLELKR	340 ng/mL
114-7.19.12 (antibody, V domains shown) VH: QVQLQQSGAELASPGASVKLSCKASGYTFTTYWLQWVKQRPGQGLEWIGAIYPGPGNTKYTQKFKDKATLTADKSASTAYMQLNSLTSEDSAVYYCARRGSRRGIAYWGQGTLVTVSA VL: NIVLTQSPASLAVSLGQRATISCRASESVDSYGRSFMHWYQQRPGQPPTLLIYLASNLESGVPVRFSGSGSRTDFTLTIDPVEADDAATYYCQQDNEDPYTFGGGTKLEIK	267 ng/mL

Other lines, results leading:

EC50 value (ng/ml), inhibiting the cellular differentiation of RAW264.7 induced by human RANKL	Binder
585 ng/mL	114-7.38.48 (antibody, V domains shown) VH: DVQLQESGPDLVKPSQSLSLTCTVTGYSITSAYSWHWIRQFPGNKLEWMGYIHFSGVTNYNPSLKSRISITRDASKNQFFLQLSSVTTEDTATYYCATRRETGFTYWGQGTLVTVSA VL: DIVLTQSPATLSVTPGDSVSLSCRASQSISKNLHWYQQKSHESPRLLIKYASQSISGIPSRFSGSGSGTDFTLSINSVETEDFGIYFCQQINSWPLTFGAGTKLELK
311 ng/mL	114-2.222 (antibody, V domains shown) VH: EVQLQQSGAELVKPGASVKLSCTTSGFNIKATYIHWVQQRPEQGLEWIGRIDPANGNTKYDSKFQGKATITADTSSNTAYLQLSSLTSEDTAVYFCARSLHYYVFFDYWGQGTTLTVSS VL: DIQMTQTTSSLSASLGDRVTISCSASQGISNYLNWYQQKPDGTVKLLIYSTSSLHSGVPSRFSGSGSGTDYSLTISSLEPEDIATYYCQQYSKLPLTFGAGTKLELKR
396 ng/mL	114-2.402 (antibody, V domains shown) VH: EVQLQQSGTELVKPGASVKLSCTLFGFNIKATYMHWVRQRPEQGLEWIGRIDPPNGNTKYDPKFQDKATIKVDTSSNTAYLQLSSLTSEDTAVYYCAREFNRYDVWLAYWGQGTLVTVSA VL: DIQMTQTTSSLSASLGDRVTISCSASQGVSNYLNWYQQKPDGTVKLLIYSTSSLHSGVPSRFSGSGSGTDYSLTISNLEPEDVATYYCQQYSKLPFTFGSGTKLEIKR
470 ng/mL	114-7.37.26 (antibody, V domains shown) VH: QVQLQQSGAELASPGASVKLSCKTSGYTFTTYWLQWVKQRPGQGLEWIGAIYPGPGNTKYTQKFKDKATLTADKSASTAYMQLSSLTSEDSAVYYCARRGSRRGIAYWGQGTLVTVSA VL: NIVLTQSPASLAVSLGQRATISCRASESVDSYGRSFMHWYQQRPGQPPTLLIYLASNLESGVPARFSGSGSRTDFTLTIDPVEADDAATYYCQQDNEDPYTFGGGTKLEIK
799 ng/mL	114-6.6.29 (antibody, V domains shown) VH: DVKLVESGGGLVKPGGSLKLSCAASGFTFSSYTMSWVRQTPEKRLEWVATISSGGSYTYYPDSVKGRFTISRDNAKNTLYLQMSSLKSEDTAMYYCTRDWDYYGTTYVGGYAMDYWGQGTSVTVSS VL: DVLMTQTPLSLPVSLGDQASISCRSSQSIVHSNGNTYLEWYLQKPGQSPKLLIYKVSNRFSGVPDRFSGSGSGTDFTLKISRVEAEDLGVYYCFQGSHVPWTFGGGTKLEIK
315 ng/mL	114-5.7.14 (antibody, V domains shown) VH: EVQLQQSGAELVKPGASVKLSCTASGFKIKDTYMHWVRQRPEQGLEWIGRIDSANGNIKYDPKFQGKATITADTSSKTAYLHLSSLTFEDTAVYYCSRPKSNYDFWLPYWGQGTLVTVSA VL: DIQMTQTTSSLSASLGDRVTISCSASQGISNYLNWYQQKPDGTVKLLIYYTSSLHSGVPSRFSGSGSGTDYSLTISNLEPEDIATYYCQQYSKLPLTFGAGTKLELK

Molecular target: T1, recombinant human RANKL
Experiment: cell-based or functional assay
Remark: another data set of the same source

IC50 (ng/ml) in RAW264.7 cells, osteoclast differentiation induced by RANKL	Binder
~1060 ng/mL	G12 (antibody, human IgG2, kappa, V domains shown) VH: QVQLVQSGAELKKPGASVKLSCKASGYTFTTYWLQWVRQAPGQGLEWMGAIYPGPGNTKYTQKFKDRFTITADTSKSTAYMQLNSLKSEDSAVYYCARRGSRRGIAYWGQGTLVTVSA VL: NIVLTQSPASLSVSLGQRATISCRASESVDSYGRSFMHWYQQRPGQAPKLLIYLASNLESGVPARFSGSGSRTDFTLTISSVEAEDEATYYCQQDNEDPYTFGGGTKLEIKG
695 ng/mL	G10 (antibody, human IgG2, kappa, V domains shown) VH: QVQLVQSGAELKKPGASVKLSCKASGYTFTTYWLQWVRQAPGQGLEWMGAIYPGPGNTKYTQKFKDRFTITADTSKSTAYMQLNSLKSEDSAVYYCARRGSRRGIAYWGQGTLVTVSA VL: NIVLTQSPASLSVSLGQRATISCRASESVDSYGRSFMHWYQQRPGQAPRLLIYLASNLESGVPARFSGSGSRTDFTLTISSVEAEDEATYYCQQDNEDPYTFGGGTKLEIKG
~1080 ng/mL	G4 (antibody, human IgG2, kappa, V domains shown) VH: QVQLVQSGAELKKPGASVKLSCKASGYTFTTYWLQWVRQAPGQGLEWMGAIYPGPGNTKYTQKFKDRFTITADKSKSTAYMQLNSLKSEDSAVYYCARRGSRRGIAYWGQGTLVTVSA VL: NIVLTQSPASLSVSLGQRATISCRASESVDSYGRSFMHWYQQRPGQAPKLLIYLASNLESGVPARFSGSGSRTDFTLTISSVEAEDEATYYCQQDNEDPYTFGGGTKLEIKG

Molecular target: T1, recombinant human RANKL
Experiment: ELISA, scFv supernatant on coated hRANKL, anti-c-myc-HRP
Procedure: For VH, VL libraries, 5×96 clones selected randomly from SOBAG cloning plates obtained in the third round and the fourth round are vaccinated on 96-deep-well plates respectively, 400 μl 2×YT-AG medium is contained in each well, the bacterial liquid is cultivated with shaking, at 30° C., 200 rpm overnight. The next day, the bacterial liquid on the deep-well plate is transferred by 1:50 to a new 96-deep-well plate containing 400 μl 2×YT-AG fresh medium. The bacterial liquid is cultivated with shaking at 37° C., 200 rpm until OD600 is about 0.8 (for about 3 hours). The bacterial is collected through 1500 g centrifugation for 10 minutes, the supernatant is removed, and the bacterial is resuspended with 400 μl of sterile fresh 2×YT-AI (I refers to IPTG, with a final concentration of […]) culture medium, the suspension is cultivated with shaking at 30° C., 200 rpm overnight (that is, the expression of scFv is induced overnight). The expressed inductively scFv supernatant on the deep-well plate is centrifuged at 3000 g for 20 min, 300 μl supernatant is transferred to a clean 96-well cell plate for backup.
The plates are washed three times with PBST (containing 0.05% Tween 20). The plates are closed with blocking solution (PBS solution containing 2% (WN) of BSA) for 1˜1.5 hours at room temperature. […] The closed microtiter plate is incubated for 2 hours at room temperature, washed three times with PBST.

binding result	Binder
binds	pFL249-L10u (scFv, scFv in IPTG-induced E. coli supernatant, screened by ELISA; also called L10u scFv clone of the VL library; not shown: c-myc tag and his tag of vector pFL249) scFv: QVQLQQSGAELASPGASVKLSCKASGYTFTTYWLQWVKQRPGQGLEWIGAIYPGPGNTKYTQKFKDKATLTADKSASTAYMQLNSLTSEDSAVYYCARRGSRRGIAYWGQGTLVTVSAASSGGGGSGGGGSGGGGSSNIVLTQSPASLSVSLGQRATISCRASESVDSYGRSFMHWYQQRPGQAPKLLIYLASNLESGVPARFSGSGSRTDFTLTISSVEAEDEATYYCQQDNEDPYTFGGGTKLEIK
binds	pFL249-L37 (scFv, scFv in IPTG-induced E. coli supernatant, screened by ELISA; also called L37 scFv clone of the VL library; not shown: c-myc tag and his tag of vector pFL249) scFv: QVQLQQSGAELASPGASVKLSCKASGYTFTTYWLQWVKQRPGQGLEWIGAIYPGPGNTKYTQKFKDKATLTADKSASTAYMQLNSLTSEDSAVYYCARRGSRRGIAYWGQGTLVTVSAASSGGGGSGGGGSGGGGSSNIVLTQSPASLSVSLGQRATISCRASESVDSYGRSFMHWYQQKPGQAPKLLIYLASNLESGVPSRFSGSGSRTDFTLTISAVEAEDAATYYCQQDNEDPYTFGGGTKLEIK
binds	pFL249-L10 (scFv, scFv in IPTG-induced E. coli supernatant, screened by ELISA; also called L10 scFv clone of the VL library; not shown: c-myc tag and his tag of vector pFL249) scFv: QVQLQQSGAELASPGASVKLSCKASGYTFTTYWLQWVKQRPGQGLEWIGAIYPGPGNTKYTQKFKDKATLTADKSASTAYMQLNSLTSEDSAVYYCARRGSRRGIAYWGQGTLVTVSAASSGGGGSGGGGSGGGGSSNIVLTQSPASLSVSLGQRATISCRASESVDSYGRSFMHWYQQRPGQAPRLLIYLASNLESGVPARFSGSGSRTDFTLTISSVEAEDEATYYCQQDNEDPYTFGGGTKLEIK
binds	pFL249-L37u (scFv, scFv in IPTG-induced E. coli supernatant, screened by ELISA; also called L37u scFv clone of the VL library; not shown: c-myc tag and his tag of vector pFL249) scFv: QVQLQQSGAELASPGASVKLSCKASGYTFTTYWLQWVKQRPGQGLEWIGAIYPGPGNTKYTQKFKDKATLTADKSASTAYMQLNSLTSEDSAVYYCARRGSRRGIAYWGQGTLVTVSAASSGGGGSGGGGSGGGGSSNIVLTQSPASLSVSLGQRATISCRASESVDSYGRSFMHWYQQKPGQAPKLLIYLASNLESGVPSRFSGSGSRTDFTLTISRVEAEDAATYYCQQDNEDPYTFGGGTKLEIK
